Reference: US12180286B2, “Anti-peripheral lymph node addressin antibodies and uses thereof” (The Brigham and Women's Hospital, Inc., priority 2019, dated 2024)

Legend:
[1] = system: Panc02 pancreas tumor cells; test: Panc02 pancreas tumor model, survival; assay type: in vivo, mice; details: 160 ng every other day intraperitoneally for 20 days, starting 4 hours post-implantation
Method: Mice were anesthetized with isoflurane, and Panc02 pancreas tumor cells were gently injected in pancreas of mice. Two million cells (2×10^6 cells) were injected per mouse for Panc02 tumor model. Starting 4 hours post-implantation, 160 ng of free Taxol or MHA112-taxol were administered every other day intraperitoneally for 20 days. Survival was monitored every day.
(§1) Glutaric anhydride (100 mg, Sigma-Aldrich) and taxol (33 mg, LC laboratories) were prepared in a 4 mL vial dried under high vacuum for 24 hours and dissolved in 1 mL of pyridine. The solution was stirred at room temperature under Ar atmosphere for 2 hours. The reaction was quenched by removal of solvent under high vacuum for 2 hours. 2′-Glutaryl taxol was purified by a reversed phase HPLC (Phenomenex Luna 5 μm C18 250×10.0 mm, flow rate 2 mL/min, UV 250 nm detection) with a gradient solvent system (15% to 75% ACN/H2O with 0.1% formic acid for 40 minutes). 2′-glutaryl taxol (0.2 mg) dissolved in DMSO (Thermo Scientific Fisher) was activated with 1-ethyl-3-(3-dimethylaminopropyl)carbodiimide hydrochloride (EDC, 0.4 mg, Sigma-Aldrich) and Sulfo-NHS (N-hydroxysulfosuccinimide) (1.1 mg, Thermo Scientific Fisher) for 15 minutes at room temperature in MES buffer (pH 6.0, Thermo Scientific Fisher) (final solution; ˜1 mL in 10% DMSO). The EDC was quenched by 2-mercaptoethanol (1.4 μL, Sigma-Aldrich) for 10 min. […]

[2] = system: 4T1 tumor-draining lymph nodes (TDLNs); test: Immunostaining of 4T1 tumor-draining lymph nodes (TDLNs); assay type: in vivo, mice; details: 4T1 TDLNs, fluorescence micrographs
Source text: Thus, the effect of the LN delivery of MHA112 in the tumor population in the LN was investigated. The extent of MHA112's ability to restore the overall structure of LN was also investigated. […] 4T1 tumor-draining lymph nodes (TDLNs) were cut by cryo-sectioning and stained with anti-HEV (sc-19602, SCBT), anti-LYVE1 (ab14917, Abcam), anti-Pan-Cytokeratin (C2931, Sigma), anti-collagen I (ab34710, Abcam), anti-collagen IV (ab6586, Abcam), and anti-laminin (ab11575, Abcam). […] The stained tissue sections were visualized using an EVOS™ FL Auto 2 Imaging System. […] The structure changes of TDLNs was also examined.

4T1 tumor cell lines = test: 4T1 breast tumor liver portal vein metastasis model, survival; assay type: in vivo, mouse; details: 160 ng every other day intraperitoneally for 20 days, starting 4 hours post-implantation
Method: To investigate the effect of MHA112-Taxol on tumor metastasis, 4T1 tumor cell lines were gently injected into the portal vein (1×10^4 cells per mouse) of mouse liver. Starting 4 hours post-implantation, 160 ng of free Taxol or MHA112-taxol were administered every other day intraperitoneally for 20 days. Survival was monitored every day.
as §1

4T1 breast tumor cells = test: 4T1 breast tumor growth model; assay type: in vivo, BALB/c-WT mice; details: equal to 160 ng free taxol every two days; n=12
Method: Mice were anesthetized with isoflurane and underwent subcutaneous injection with 4T1 breast tumor cells in the mammary glands (1×10^5 cells per mouse). Starting at 9 days post-implantation, free Taxol or MHA112-Taxol were administered every other day intraperitoneally for 24 days. Tumor growth was monitored two times per week by digital caliper.

[3] = system: high endothelial venules (HEVs) of human tonsil; test: Immunofluorescence staining of HEVs in human tonsil section; assay type: binding; details: hybridoma supernatant
Source text: (§2) Two of GlcNAc6ST1/2/4 triple knock-out (KO) mice, which lack the peripheral lymph node vascular addressin (PNAd), were immunized with Chinese hamster ovary (CHO) cell lines expressing CD34 decorated with sialyl Lewis^X (sLeX)-type glycans. MHA112 single hybridoma clone was identified by HEV immunofluorescence staining. The supernatant of MHA112 hybridoma culture was collected and used to stain mice lymph nodes (LNs) and human tonsil section.
(§3) Two of GlcNAc6ST1/2/4 triple KO mice, which lack the PNAd, were immunized with CHO cell lines expressing CD34 decorated with sLeX-type glycans. After the 3rd immunization, mice were sacrificed for hybridoma. Around 500 single clones were screened by HEV staining. Monoclonal antibody MHA112 against mice and human HEV was identified.
(§4) Fresh LNs were embedded in tissue-freezing medium. Cryostat sections (8 μm thick) were cut for imaging by fluorescence confocal microscopy. MHA112 was used for tissue staining as primary antibody. Alexa Fluor 488-conjugated anti-mouse IgM was used as secondary antibody. DAPI was used to stain the cell nuclei.

T cells homing to LNs = test: Blocking of labeled T cell homing to LNs (flow cytometry); assay type: in vivo, C57BL/6 mice; details: 200 μg i.p. 2 hours before T cell injection, 19 hours after transfer
Method: To test whether MHA112 mAb can block T cells homing to LNs in vivo, T cells were labeled with fluorescein isothiocyanate (FITC) florescence dye and transferred into naïve mice, and their distribution assessed 19 hours later. MHA112 (anti-HEVs) reduced the number of transferred T cells that entered Axillary (Axi), Inguinal (Ing) and Brachial (Bra) LN by over 25% (FIG. 4). […] Labeled T cells that entered spleen were not changed in three groups (FIG. 4).
Spleens were harvested from three C57BL/6 mice. Single cell suspensions were prepared, and cells were positively enriched for T cells with MACS reagents and columns (Miltenyi Biotech, Bergisch Gladbach, Germany) according to the manufacturer's instructions. For injection, T cells were labeled with CellTracker Green (Thermo Fisher) and resuspended in sterile saline, and 5 million T cells were injected in 100 μl each mouse. Blocking antibodies MHA112 and MECA79 were administered intraperitoneally (i.p.) at 200 μg in 200 μl per mouse 2 hours before T cell injection. 19 hours after transfer, mice were euthanized and LNs were processed for flow cytometry.

[4] = system: CHO cells expressing PNAd (CHO-PNAd); test: Cell-based ELISA binding affinity
Method: To compare the affinity of MHA112 with MECA79, cell-based ELISA was performed. CHO cells expressing PNAd (CHO-PNAd) (2×10^4) were coated onto 96-well plates and incubated overnight at 37° C. After five washes with phosphate buffered saline (PBS), the plates were fixed with 1% paraformaldehyde (PFA) and blocked with 3% bovine serum albumin (BSA). MECA79 and MHA112 were serially diluted from 1 ng/ml to 300 μg/ml. After five washes in PBST, horseradish peroxidase-(HRP-)conjugated goat anti-mouse and anti-rat secondary antibodies were added at a 1:10,000 dilution and incubated for 1 hour at room temperature. Binding was detected with the addition of TMB (3,3′,5,5′-tetramethylbenzidine) substrate, and the reaction was stopped by adding TMB Stop Solution (N600, Thermo Scientific). Absorbance signals were read at 450 nm.

[5] = system: high endothelial venules (HEVs) of mice lymph nodes (LNs); test: Immunofluorescence staining of HEVs in mice lymph node sections; assay type: binding; details: hybridoma supernatant
Source text: as §2, §3, §4

CC(=O)O[C@H]1C(=O)[C@@]2(C)[C@H]([C@H](OC(=O)c3ccccc3)[C@]3(O)C[C@H](OC(=O)[C@H](O)[C@@H](NC(=O)c4ccccc4)c4ccccc4)C(C)=C1C3(C)C)[C@]1(OC(C)=O)CO[C@@H]1C[C@@H]2O [free Taxol, taxol]
median survival time (MST) [1]: 32 days | expansion of HEVs and lymphatics (LYVE1) in TDLNs [2]: expanded | median survival time (MST) (4T1 tumor cell lines): 37 days | growth of 4T1 mouse breast tumors versus control group treated with PBS (4T1 breast tumor cells): significantly slower growth

B1: MHA112: anti-PNAd monoclonal antibody, mouse IgM, VH SEQ ID NO:2 and VL SEQ ID NO:7 (antibody, V domains shown)
VH: QVQLKESGPGLVAPSQSLSITCTVSGFSLTSYGVDWVRQPPGKGLEWLGVIWGGGSTNYNSALMSRLSISKDNSKSQVFLKMNSLQTDDTAMYYCAKHSKGGYFDVWGTGTTVTVSS
VL: EIVLTQSPAITAASLGQKVTITCSASSSVSYMHWYQQKSGTSPKPWIYEISKLASGVPARFSGSGSGTSYSLTISSMEAEDAAIYYCQQWNYPLITFGAGTKLELK
modifications: mouse IgM constant regions; MHA112 Heavy chain; MHA112 Light chain
staining of HEVs structure [3]: stained | reduction of number of transferred T cells that entered Axillary, Inguinal and Brachial LN (T cells homing to LNs): over 25% | reduction of number of T cells that entered mesenteric LNs (T cells homing to LNs; of PBS controls): around 12% | binding affinity higher than MECA79 [4]: 30% | Kd ([4]; fitting curves, absorbance 450 nm): 970 pM | staining of HEVs structure [5]: stained
